# Data from the nanobody polyreactivity screen of Harvey et al. (2022).
# Experiment: yeast display, Sf9 membrane polyspecificity reagent, FACS + sequencing; frameworks hold sequencing errors
# Summary of the method: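 Galactose induction of a Saccharomyces cerevisiae BJ5465 synthetic nanobody display library ran 36–48 hours. The cells were then stained for 1 hour at 4 °C with 10% biotinylated, detergent-solubilized Sf9 membrane reagent, pulled down on streptavidin microbeads and FACS-sorted into low and high (top ~1%) gates on expression and reagent-binding fluorescence. Labels for polyreactivity follow the gate of origin.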
row,Sequence,polyreactivity (PSR sort gate)
1,QVQLVESGGGLVQAGGSLRLSCAASGFIFASYAMGWYRQAPGKERELVAAISSSGGRTYYADSVKGRFTISRDNAKNTVYLQMNSLKPEDTAVYYCAAPRIYIPAEYYSWGQGTQVTVSS,high polyreactivity
2,QVQLVESGGGLVQAGGSLRLSCAASGFIFASYAMGWYRQAPGKERELVAAISYRGGTTYYADSVKGRFTISRDNAKNTVYLQMNSLKPEDTALYYCAADSPENRYNYWGQGTQVTVSS,high polyreactivity
3,QVQLVESGGGLVQAGGSLRLSCAASGFIFASYAMGWYRQAPGKERELVAAITQSRGITYYADSVKGRFTISRDNAKNTVYLQMNSLKPEDTAGYYCNTPLLKRTSRGRERNYWGQGTQVTVSS,low polyreactivity
4,QVQLVESGGGLVQAGGSLRLSCAASGFIFASYAMGWYRQAPWKERELVAAISYRGGTTYYADSVKGRFTISRDNAKNTVYLQMNSLKPEDTAVYYCAADSPENRYNDWGQGTQVTVSS,high polyreactivity
5,QVQLVESGGGLVQAGGSLRLSCAASGFIFATNAMGWYRQAPGKEREFVAAITSGGSTYYADSVKGRFTISRDNAKNTVYLQMNSLKPEDTAVYYCNARTYSRVTRQTYRYRPYDYWGQGTQVTVSS,high polyreactivity
6,QVQLVESGGGLVQAGGSLRLSCAASGFIFAYNAMGWYRQAPGKEREFVAAINSGGDSTYYADSVKGRFTISRDYANNTVYLQMNSLKPEDTAVYSCAAVIGNKRYYYWGQGTQVTVSS,low polyreactivity
7,QVQLVESGGGLVQAGGSLRLSCAASGFIFAYNAMGWYRQAPGKERELVAAISWSGGSTYYADSVKGRFTISRDNAKNTVYLQMNSLKPEDTAVYYCNKYIRYPFKRYGYWGQGTQVTVSS,high polyreactivity
8,QVQLVESGGGLVQAGGSLRLSCAASGFIFAYNAMGWYRQAPGKERELVAAISWSGGSTYYADYVKGRFTISRDNAKNTVYLQMNSLKPEDTAVYYCNAVSYYGARYDYWGQGTQVTVSS,high polyreactivity
9,QVQLVESGGGLVQAGGSLRLSCAASGFIFAYYAMGWYRQAPGKERELVAAISSRGGTYYADSVKGPFTISRDNAKNTVYLQMNSLKPEDTAVYYCAAASYTWVSLGYEYWGQGTQVTVSS,high polyreactivity
10,QVQLVESGGGLVQAGGSLRLSCAASGFIFAYYAMGWYRQAPGKERELVAAITNSGGSTYYADSVKGRFTISRDNAKNTVYLQMNSLKPEDTAVYYCNALHRIRYTPSSRYDYWGQGTQVTVSS,low polyreactivity
11,QVQLVESGGGLVQAGGSLRLSCAASGFIFAYYAMGWYRQEPGKERELVAAISSSGSTNYADSVKGRFTISRDNAKNTVYLQMNSLKPEDTAVYYCAADRVGGTPQAYVPSQFDYWGQGTQVTVSS,low polyreactivity
12,QVQLVESGGGLVQAGGSLRLSCAASGFIFDAYAMGWYRQAPGKERELVAAIDSGGSTDYADSVKGRFTISRDNAKNTVYLQMNSLKPEDTAVYYCNAERAYLWWYNFDYWGQGTQVTVSS,low polyreactivity
13,QVQLVESGGGLVQAGGSLRLSCAASGFIFDDNAMGWYRQAPGKERELVAAITSGGGSTYYADSVKGRFTISRDNAKNTVYLQMNSLIPEDTAVYYCNAVPSQHDEFDYWGQGTHVTVSS,low polyreactivity
14,QVQLVESGGGLVQAGGSLRLSCAASGFIFDDYAMGWNRQAPGKERELVAAITDSGDGTDYADSVKGRFTISRDNAKNTVYLQMNSLKPEDTAVYYCAAGLWYSYDYWGQGTQVTVSS,high polyreactivity
15,QVQLVESGGGLVQAGGSLRLSCAASGFIFDFYAMGWYRQAPGKERELVATINSSGTTNYADSVKGRFTISRDNAKNTVYLQMNSLKPEDTAVYYCATVEYLGHYTYDYWGQGTQVTVSS,low polyreactivity
16,QVQLVESGGGLVQAGGSLRLSCAASGFIFDKNAMGWYRQAPGKERELVAAISSGGGSTDYADAVKGRFTISRDNAKNPDYLHMNSLKPEDTAVYYCARYWDQLQQYVISFGRYGMDYWGQGTQVTVSS,high polyreactivity
17,QVQLVESGGGLVQAGGSLRLSCAASGFIFDNNAMGWYRQAPGKERELVADISESGGSTYYADSVKGRFTISRDNAKNTVYLQMNSLKPEDTAVYYCNADIESWYCEFDYWGQGTQVTVSS,low polyreactivity
18,QVQLVESGGGLVQAGGSLRLSCAASGFIFDRYAMGWYRQAPGKERELVAAISSGGSTYYADSVKGRFTISRDNAKNTVYLQMNSLKPEDTAVYYCAAESWLNFIYEYDYWGQGTQVTVSS,low polyreactivity
19,QVQLVESGGGLVQAGGSLRLSCAASGFIFDRYAMGWYRQAPGKERELVAAISWTGGSTYYADSVKGRFTISRDNAKNTVYLQMNSLKPEDTAVYYCAVEYSLVYWSGVVDLGYWGQGTQVTVSS,high polyreactivity
20,QVQLVESGGGLVQAGGSLRLSCAASGFIFDTYAMGWYRQAHGKERELVAAIRWSGGRTYYGDSVKGRFTISRDNAKNTVYLQMNSMKPEDTAVYYCNVVVRYPYAYDYWGQGTQVTVSS,high polyreactivity
21,QVQLVESGGGLVQAGGSLRLSCAASGFIFDWYAMGWYRQAPGKERELVAAINESGGDTYYADSVKGRFTISRDNAKNTVYLQMNSLKPEDTAVYYCAARTYHRYDYWGQGTQVTVSS,high polyreactivity

row,Sequence,polyreactivity (PSR sort gate)
1,QVQLVESGGGLVQAGGSLRLSCAASGFIFDYNAMVWYRQAPGKERELVAAISISGGGTYYADSVKGRFTISRDNAKNTVYLQMNSLKPEDTAVYYCATAGRYDAYDYWGQGTQVTVSS,low polyreactivity
2,QVQLVESGGGLVQAGGSLRLSCAASGFIFDYYAMGWYRQAPGKERELVAAIDDSGGSTYYADSVKGRFTISRDNAKNTVYLQMNSLKPEDTAVYYCNAGVGWHSYYSNYDYWGQGTQVTVSS,low polyreactivity
3,QVQLVESGGGLVQAGGSLRLSCAASGFIFDYYAMGWYRQAPGKERELVAAITRDGGGTYYADSVKGRFTISRDNEKNSVYLQMNSLKPEDTAVYYCAAETYWYYRANYDYWGQGTQVTVSS,high polyreactivity
4,QVQLVESGGGLVQAGGSLRLSCAASGFIFDYYAMGWYRQAPGKERELVAAITSRSGSTYYADSVKGRFTISRDNAKNTVYLQMNSLKPEDTAVYYCSRRFKYGSTAWRFYYWGQGTQVTVSS,high polyreactivity
5,QVQLVESGGGLVQAGGSLRLSCAASGFIFDYYAMGWYRQAPGKERELVATISSSGGSTYYADSVKGRFTISRDYAKKTVYLQMNSLKPEDTAVYYCATGYTWVADSWEYYYWGQGTQVTVSS,low polyreactivity
6,QVQLVESGGGLVQAGGSLRLSCAASGFIFEDYAMGWYRQAPGKERELVAAIRSNDDSTYYADSVKGRFTISRDNAKNTVYLQMNSLKPEDTAVYYCAAVRYVHFGYDYWGQGTQVTVSS,high polyreactivity
7,QVQLVESGGGLVQAGGSLRLSCAASGFIFEGNAMGWYRQAPGKERELVAAISSSSGRTRYADSVKGRFTISRDNAKNTVYLQMNSLKPEDTAVYYCAARRQSTRPGFYYWGQGTQVTVSS,high polyreactivity
8,QVQLVESGGGLVQAGGSLRLSCAASGFIFEPYAMGWYRQAPGKERELVAAISSGGSTYADSVKGRFTISRDNAKNTVYLQMNSLKPEDTAVYYCAVRGYWGQGTQVTVSS,low polyreactivity
9,QVQLVESGGGLVQAGGSLRLSCAASGFIFEPYAMGWYRQAPGTERELVAAISATDDSTYYADSVKGRFTISRDNAKNTVYLQMNSLKPEDTAVYYCNATYYIIALPYDYWGQGTQVTVSS,low polyreactivity
10,QVQLVESGGGLVQAGGSLRLSCAASGFIFERYTMGWYRQAPGKERELVAAISDSGGSTYYADSVKGRFTISRDNAKNTVYLQMNSLKPEDTAVYYCAAKFRNYRPSKYYYWGQGTQVTVSS,high polyreactivity
11,QVQLVESGGGLVQAGGSLRLSCAASGFIFESNAMGWYIQAPGKERELVATITNGDRTYYADSVNGRFTISRDNAKNTVYLQMNSLKPEDTAVYYCNADFRAREVFLFDSWGQGTQVTVSS,low polyreactivity
12,QVQLVESGGGLVQAGGSLRLSCAASGFIFFANAMGWYRQAPGKESELVADITWSGGTTYYADSVKGRFTISRDNAKNTVYLQMNSLKPEDTAVYYCAARGWASTWYYYWGQGTQVTVSS,high polyreactivity
13,QVQLVESGGGLVQAGGSLRLSCAASGFIFFFYAMGWYRQAPGKERELVASISWNGGSTYYADSVKGRFTISRDNAKNTVYLQMNSLKPEYTAVYYCAVYSFRERVKAYRIYDYWGQGTHVTVSS,low polyreactivity
14,QVQLVESGGGLVQAGGSLRLSCAASGFIFFRNAMGWYRQAPGKERELVAAISRSGGITYYADSVKGRFTISRDNAKNTVYLQMNSLKPEDTAVYYCNAAKASREQWTSFDYWGQGTQVTVSS,high polyreactivity
15,QVQLVESGGGLVQAGGSLRLSCAASGFIFFRYAMGWYRQAPGKERELVATITSSGRTNYADSVKGRFTISRDNAKNTVYLQMNSLKPEDTAVYYCAAQRTGARRYRYDSWGQGTQVTVSS,high polyreactivity
16,QVQLVESGGGLVQAGGSLRLSCAASGFIFFRYSMGWYRQAPGKERELVATINLGGGSTYADSVKGRFTISRDNAKNTVYLQMTSLKPEDTAVYYSAADVANSIYDYWGQGTLVTVSS,low polyreactivity
17,QVQLVESGGGLVQAGGSLRLSCAASGFIFFYYAMGWYRQAPGKERELVAAITRGGSTNYADSVKGRFTISRDNAKNTVYLQMNRLKPEDTAVYYCNKQYGRRHYWGDDYYWGQGTQVTVSS,low polyreactivity
18,QVQLVESGGGLVQAGGSLRLSCAASGFIFGDYAMGWYRQAPGKERELVAAISRSGGRTYYADSVKGRFTISRDNAKNTVYLQMNSLKPEDTAVYYCAKSSLNIYEYWGQGTQVTVSS,high polyreactivity
19,QVQLVESGGGLVQAGGSLRLSCAASGFIFGDYAMGWYRQAPGTERELVAAIFSGGSTYYADSVKGRFTISRDNAKNTVYLQMNSLKPEDTAVYYCAARFARYDWSMYYWGQGTQVTVSS,low polyreactivity
20,QVQLVESGGGLVQAGGSLRLSCAASGFIFGDYVMGRYRQAPGKEREVVAAITRRGGRTNYADSVKGRFTISRDNAKNTVFLQMNSLIPEDNAVFYCNAQSGVVADDYWGQGSQVTVSS,high polyreactivity
